Source: paper PMC12447578, “Syndecan-4 interacts directly with β-parvin and regulates the ILK-PINCH-β-parvin complex, the β-parvin-β-PIX-Rac1 axis, and cardiomyocyte geometry in a sex-dependent manner” (Frontiers in Cell and Developmental Biology, 2025)
Each block holds one molecule with its values, some of them ahead of it.

What was measured:
[1] = biological target: Biotin-ahx-SDC4cyt (human, rat and mouse (identical)); test: SPR; Biacore X100; biotin-ahx-SDC4cyt immobilised on SA chip at 100-200 RU; parvin as analyte 26.5-277.7 nM in Hepes pH 7.4, 150 mM NaCl, 3 mM EDTA, 0.005% Surfactant P20; 30 µL/min, 180 s association, 600 s dissociation; 1:1 Langmuir model
Chain of Biotin-ahx-SDC4cyt (human, rat and mouse (identical)) (P31431 171-198): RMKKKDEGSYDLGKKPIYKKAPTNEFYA

[2] = tested on: FL β-parvin 20′mer overlapping peptides; test: Peptide overlay: 20-mer β-parvin peptides overlaid with recombinant ILK (S343D); assay type: binding, rat; conditions: peptide array, O/N, 4°C, ILK antibodies, n = 4 membranes
From the text: Full-length (FL) recombinant human C-Myc/DDK-β-parvin was obtained from OriGene (TP308490, Rockville, MD, United States). Recombinant rat 8xHIS-β-parvin (85% purity), rat 8xHIS-α-parvin (85% purity), and mouse 8xHIS-ILK (S343D) (75% purity) were custom-made by GenScript.
The cytoplasmic tail of syndecan-4 (mouse) or FL β-parvin (rat) protein was synthesized as 20′mer overlapping peptides with 3 amino acids offset onto a cellulose membrane by a Multipep automated peptide synthesizer (CEM Corporation, Matthews, NC, United States) ([Frank and Overwin, 1996]). After membrane blocking, antibodies, or a solution with recombinant protein or biotin-ahx-SDC4 were added and incubated O/N at 4°C. Membranes were developed as described for immunoblotting.

Kd [1]: 11.1 nM
koff [1]: 8.6e-05 s⁻¹
kon [1]: 10000 M⁻¹ s⁻¹
Molecule: Recombinant rat 8xHIS-β-parvin (natural protein)

B1: ILK (S343D): Recombinant mouse 8xHIS-ILK (S343D), custom-made by GenScript (protein)
chain: MDDIFTQCREGNAVAVRLWLDNTENDLNQGDDHGFSPLHWACREGRSAVVEMLIMRGARINVMNRGDDTPLHLAASHGHRDIVQKLLQYKADINAVNEHGNVPLHYACFWGQDQVAEDLVANGALVSICNKYGEMPVDKAKAPLRELLRERAEKMGQNLNRIPYKDTFWKGTTRTRPRNGTLNKHSGIDFKQLNFLAKLNENHSGELWKGRWQGNDIVVKVLKVRDWSTRKSRDFNEECPRLRIFSHPNVLPVLGACQAPPAPHPTLITHWMPYGSLYNVLHEGTNFVVDQSQAVKFALDMARGMAFLHTLEPLIPRHALNSRSVMIDEDMTARISMADVKFDFQCPGRMYAPAWVAPEALQKKPEDTNRRSADMWSFAVLLWELVTREVPFADLSNMEIGMKVALEGLRPTIPPGISPHVCKLMKICMNEDPAKRPKFDMIVPILEKMQDK
modifications: left off: 8xHIS, end not stated, state not stated
notes: Recombinant mouse 8xHIS-ILK (S343D), custom-made by GenScript
ILK binding site in β-parvin (CH2 domain) [2]: bound a few amino acids upstream of the syndecan-4 core binding site
